For test [1], the target named is T1, LZTR1 R810W-FLAG (human, UniProt Q8N653 1-840).
T1 construct: Stably expressed in U87 cells by lentivirus; also called LZTR1-FLAG-R810W; LZTR1 RW; not shown: FLAG tag
T1 sequence (looked up): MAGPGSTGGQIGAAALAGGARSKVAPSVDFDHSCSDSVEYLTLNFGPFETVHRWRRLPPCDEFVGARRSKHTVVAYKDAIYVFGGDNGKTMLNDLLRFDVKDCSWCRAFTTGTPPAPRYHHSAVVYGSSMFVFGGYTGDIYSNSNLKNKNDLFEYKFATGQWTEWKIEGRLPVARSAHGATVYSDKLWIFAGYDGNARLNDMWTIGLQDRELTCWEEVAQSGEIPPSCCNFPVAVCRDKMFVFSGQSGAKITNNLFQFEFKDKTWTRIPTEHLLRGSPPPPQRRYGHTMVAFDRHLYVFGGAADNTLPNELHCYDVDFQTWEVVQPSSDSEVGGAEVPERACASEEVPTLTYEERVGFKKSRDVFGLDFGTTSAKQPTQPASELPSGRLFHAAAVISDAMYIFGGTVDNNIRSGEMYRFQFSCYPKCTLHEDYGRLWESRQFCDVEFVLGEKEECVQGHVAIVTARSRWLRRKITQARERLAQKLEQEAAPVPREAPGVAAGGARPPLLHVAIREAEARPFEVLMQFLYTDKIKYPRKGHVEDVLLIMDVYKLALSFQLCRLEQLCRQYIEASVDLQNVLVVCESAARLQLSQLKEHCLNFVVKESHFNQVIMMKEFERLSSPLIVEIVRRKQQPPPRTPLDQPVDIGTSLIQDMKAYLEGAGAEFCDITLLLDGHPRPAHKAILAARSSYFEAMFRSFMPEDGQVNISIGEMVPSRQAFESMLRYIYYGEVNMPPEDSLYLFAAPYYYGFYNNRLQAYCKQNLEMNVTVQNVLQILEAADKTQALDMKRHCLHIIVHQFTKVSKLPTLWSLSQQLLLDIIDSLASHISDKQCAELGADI
In words: IP/MS, LZTR1 R810W-FLAG, U87. The gist of the method:
(§1)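 Extracted peptides in 3% acetonitrile/0.1% formic acid ran on a 50 cm C18 column into an Orbitrap Fusion, with MaxQuant identification and spectral counting.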

Test [2] has as its target T2, LZTR1-FLAG (human, UniProt Q8N653 1-840).
T2 construct: Expressed in HEK 293T, HeLa or U87 cells; used as cell lysate; also called LZTR1 wild type-FLAG; LZTR1 WT; not shown: FLAG tag at the C-terminus
T2 sequence (looked up): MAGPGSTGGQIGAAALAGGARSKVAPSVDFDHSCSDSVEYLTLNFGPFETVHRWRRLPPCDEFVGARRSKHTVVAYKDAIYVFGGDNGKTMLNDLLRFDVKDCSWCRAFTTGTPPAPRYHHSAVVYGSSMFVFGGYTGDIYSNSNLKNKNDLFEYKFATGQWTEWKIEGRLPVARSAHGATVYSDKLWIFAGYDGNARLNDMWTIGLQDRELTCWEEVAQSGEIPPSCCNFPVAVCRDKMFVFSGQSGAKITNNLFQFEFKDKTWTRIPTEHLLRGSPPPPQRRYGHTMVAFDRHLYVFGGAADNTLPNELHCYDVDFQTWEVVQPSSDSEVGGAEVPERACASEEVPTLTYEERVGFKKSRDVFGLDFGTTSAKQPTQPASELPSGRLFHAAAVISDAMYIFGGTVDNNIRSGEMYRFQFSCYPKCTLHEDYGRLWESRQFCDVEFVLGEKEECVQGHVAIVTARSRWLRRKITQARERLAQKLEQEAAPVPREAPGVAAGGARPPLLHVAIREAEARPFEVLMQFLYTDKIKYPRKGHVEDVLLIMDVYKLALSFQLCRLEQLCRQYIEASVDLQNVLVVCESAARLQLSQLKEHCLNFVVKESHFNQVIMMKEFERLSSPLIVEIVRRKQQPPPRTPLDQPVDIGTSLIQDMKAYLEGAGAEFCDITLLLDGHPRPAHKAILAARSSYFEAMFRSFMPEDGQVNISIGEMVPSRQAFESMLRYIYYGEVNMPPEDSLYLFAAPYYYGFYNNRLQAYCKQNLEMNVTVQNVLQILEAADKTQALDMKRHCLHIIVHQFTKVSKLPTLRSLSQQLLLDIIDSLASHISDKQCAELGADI
In words: IP/MS, LZTR1 wild type-FLAG, U87. The gist of the method: as §1

B1: CY P51A1 (other, human, UniProt Q16850 1-509, looked up)
chain: MAAAAGMLLLGLLQAGGSVLGQAMEKVTGGNLLSMLLIACAFTLSLVYLIRLAAGHLVQLPAGVKSPPYIFSPIPFLGHAIAFGKSPIEFLENAYEKYGPVFSFTMVGKTFTYLLGSDAAALLFNSKNEDLNAEDVYSRLTTPVFGKGVAYDVPNPVFLEQKKMLKSGLNIAHFKQHVSIIEKETKEYFESWGESGEKNVFEALSELIILTASHCLHGKEIRSQLNEKVAQLYADLDGGFSHAAWLLPGWLPLPSFRRRDRAHREIKDIFYKAIQKRRQSQEKIDDILQTLLDATYKDGRPLTDDEVAGMLIGLLLAGQHTSSTTSAWMGFFLARDKTLQKKCYLEQKTVCGENLPPLTYDQLKDLNLLDRCIKETLRLRPPIMIMMRMARTPQTVAGYTIPPGHQVCVSPTVNQRLKDSWVERLDFNPDRYLQDNPASGEKFAYVPFGAGRHRCIGENFAYVQIKTIWSTMLRLYEFDLIDGYFPTVNYTTMIHTPENPVIRYKRRSK
notes: Printed as CY P51A1; read as CYP51A1
With B1, the binding result in test [1] and in test [2] was “binds” in each case.

B2: GBE1 (other, human, UniProt Q04446 2-702, looked up)
chain: AAPMTPAARPEDYEAALNAALADVPELARLLEIDPYLKPYAVDFQRRYKQFSQILKNIGENEGGIDKFSRGYESFGVHRCADGGLYCKEWAPGAEGVFLTGDFNGWNPFSYPYKKLDYGKWELYIPPKQNKSVLVPHGSKLKVVITSKSGEILYRISPWAKYVVREGDNVNYDWIHWDPEHSYEFKHSRPKKPRSLRIYESHVGISSHEGKVASYKHFTCNVLPRIKGLGYNCIQLMAIMEHAYYASFGYQITSFFAASSRYGTPEELQELVDTAHSMGIIVLLDVVHSHASKNSADGLNMFDGTDSCYFHSGPRGTHDLWDSRLFAYSSWEILRFLLSNIRWWLEEYRFDGFRFDGVTSMLYHHHGVGQGFSGDYSEYFGLQVDEDALTYLMLANHLVHTLCPDSITIAEDVSGMPALCSPISQGGGGFDYRLAMAIPDKWIQLLKEFKDEDWNMGDIVYTLTNRRYLEKCIAYAESHDQALVGDKSLAFWLMDAEMYTNMSVLTPFTPVIDRGIQLHKMIRLITHGLGGEGYLNFMGNEFGHPEWLDFPRKGNNESYHYARRQFHLTDDDLLRYKFLNNFDRDMNRLEERYGWLAAPQAYVSEKHEGNKIIAFERAGLLFIFNFHPSKSYTDYRVGTALPGKFKIVLDSDAAEYGGHQRLDHSTDFFSEAFEHNGRPYSLLVYIPSRVALILQNVDLPN
In the case of B2, the binding result in test [1] and in test [2] was “binds” in each case.

B3: FADS1 (other, human, UniProt O60427 1-444, looked up)
chain: MAPDPVAAETAAQGPTPRYFTWDEVAQRSGCEERWLVIDRKVYNISEFTRRHPGGSRVISHYAGQDATDPFVAFHINKGLVKKYMNSLLIGELSPEQPSFEPTKNKELTDEFRELRATVERMGLMKANHVFFLLYLLHILLLDGAAWLTLWVFGTSFLPFLLCAVLLSAVQAQAGWLQHDFGHLSVFSTSKWNHLLHHFVIGHLKGAPASWWNHMHFQHHAKPNCFRKDPDINMHPFFFALGKILSVELGKQKKKYMPYNHQHKYFFLIGPPALLPLYFQWYIFYFVIQRKKWVDLAWMITFYVRFFLTYVPLLGLKAFLGLFFIVRFLESNWFVWVTQMNHIPMHIDHDRNMDWVSTQLQATCNVHKSAFNDWFSGHLNFQIEHHLFPTMPRHNYHKVAPLVQSLCAKHGIEYQSKPLLSAFADIIHSLKESGQLWLDAYLHQ
In the case of B3, the binding result in test [1] and in test [2] was “binds” in each case.

B4: GLE1 (other, human, UniProt Q53GS7 1-698, looked up)
chain: MPSEGRCWETLKALRSSDKGRLCYYRDWLLRREDVLEECMSLPKLSSYSGWVVEHVLPHMQENQPLSETSPSSTSASALDQPSFVPKSPDASSAFSPASPATPNGTKGKDESQHTESMVLQSSRGIKVEGCVRMYELVHRMKGTEGLRLWQEEQERKVQALSEMASEQLKRFDEWKELKQHKEFQDLREVMEKSSREALGHQEKLKAEHRHRAKILNLKLREAEQQRVKQAEQERLRKEEGQIRLRALYALQEEMLQLSQQLDASEQHKALLKVDLAAFQTRGNQLCSLISGIIRASSESSYPTAESQAEAERALREMRDLLMNLGQEITRACEDKRRQDEEEAQVKLQEAQMQQGPEAHKEPPAPSQGPGGKQNEDLQVKVQDITMQWYQQLQDASMQCVLTFEGLTNSKDSQAKKIKMDLQKAATIPVSQISTIAGSKLKEIFDKIHSLLSGKPVQSGGRSVSVTLNPQGLDFVQYKLAEKFVKQGEEEVASHHEAAFPIAVVASGIWELHPRVGDLILAHLHKKCPYSVPFYPTFKEGMALEDYQRMLGYQVKDSKVEQQDNFLKRMSGMIRLYAAIIQLRWPYGNRQEIHPHGLNHGWRWLAQILNMEPLSDVTATLLFDFLEVCGNALMKQYQVQFWKMLILIKEDYFPRIEAITSSGQMGSFIRLKQFLEKCLQHKDIPVPKGFLTSSFWRS
Consider B4, for which the binding result in test [1] and in test [2] was “binds” in each case.

B5: DHX32 (other, human, UniProt Q7L7V1 1-743, looked up)
chain: MEEEGLECPNSSSEKRYFPESLDSSDGDEEEVLACEDLELNPFDGLPYSSRYYKLLKEREDLPIWKEKYSFMENLLQNQIVIVSGDAKCGKSAQVPQWCAEYCLSIHYQHGGVICTQVHKQTVVQLALRVADEMDVNIGHEVGYVIPFENCCTNETILRYCTDDMLQREMMSNPFLGSYGVIILDDIHERSIATDVLLGLLKDVLLARPELKLIINSSPHLISKLNSYYGNVPVIEVKNKHPVEVVYLSEAQKDSFESILRLIFEIHHSGEKGDIVVFLACEQDIEKVCETVYQGSNLNPDLGELVVVPLYPKEKCSLFKPLDETEKRCQVYQRRVVLTTSSGEFLIWSNSVRFVIDVGVERRKVYNPRIRANSLVMQPISQSQAEIRKQILGSSSSGKFFCLYTEEFASKDMTPLKPAEMQEANLTSMVLFMKRIDIAGLGHCDFMNRPAPESLMQALEDLDYLAALDNDGNLSEFGIIMSEFPLDPQLSKSILASCEFDCVDEVLTIAAMVTAPNCFSHVPHGAEEAALTCWKTFLHPEGDHFTLISIYKAYQDTTLNSSSEYCVEKWCRDYFLNCSALRMADVIRAELLEIIKRIELPYAEPAFGSKENTLNIKKALLSGYFMQIARDVDGSGNYLMLTHKQVAQLHPLSGYSITKKMPEWVLFHKFSISENNYIRITSEISPELFMQLVPQYYFSNLPPSESKDILQQVVDHLSPVSTMNKEQQMCETCPETEQRCTLQ
B5: the binding result in test [1] and in test [2] was “binds” in each case.

B6: ELAC2 (other, human, UniProt Q9BQ52 17-826, looked up)
chain: SQGRTISQAPARRERPRKDPLRHLRTREKRGPSGCSGGPNTVYLQVVAAGSRDSGAALYVFSEFNRYLFNCGEGVQRLMQEHKLKVARLDNIFLTRMHWSNVGGLSGMILTLKETGLPKCVLSGPPQLEKYLEAIKIFSGPLKGIELAVRPHSAPEYEDETMTVYQIPIHSEQRRGKHQPWQSPERPLSRLSPERSSDSESNENEPHLPHGVSQRRGVRDSSLVVAFICKLHLKRGNFLVLKAKEMGLPVGTAAIAPIIAAVKDGKSITHEGREILAEELCTPPDPGAAFVVVECPDESFIQPICENATFQRYQGKADAPVALVVHMAPASVLVDSRYQQWMERFGPDTQHLVLNENCASVHNLRSHKIQTQLNLIHPDIFPLLTSFRCKKEGPTLSVPMVQGECLLKYQLRPRREWQRDAIITCNPEEFIVEALQLPNFQQSVQEYRRSAQDGPAPAEKRSQYPEIIFLGTGSAIPMKIRNVSATLVNISPDTSLLLDCGEGTFGQLCRHYGDQVDRVLGTLAAVFVSHLHADHHTGLPSILLQRERALASLGKPLHPLLVVAPNQLKAWLQQYHNQCQEVLHHISMIPAKCLQEGAEISSPAVERLISSLLRTCDLEEFQTCLVRHCKHAFGCALVHTSGWKVVYSGDTMPCEALVRMGKDATLLIHEATLEDGLEEEAVEKTHSTTSQAISVGMRMNAEFIMLNHFSQRYAKVPLFSPNFSEKVGVAFDHMKVCFGDFPTMPKLIPPLKALFAGDIEEMEERREKRELRQVRAALLSRELAGGLEDGEPQQKRAHTEEPQAKKVRAQ
Consider B6, for which the binding result in test [1] and in test [2] was “binds” in each case.
